B4: SpyTag003-AF594 (His6-SpyTag003-SUMO-Cys Alexa Fluor 594 conjugate) (other)
chain: MGSSHHHHHHSSGLVPRGSRGVPHIVMVDAYKRYKGSGESGMSDSEVNQEAKPEVKPEVKPETHINLKVSDGSSEIFFKIKKTTPLRRLMEAFAKRQGKEMDSLRFLYDGIRIQADQTPEDLDMEDNDIIEAHREQIGC
modifications: Alexa Fluor 594 C5 maleimide on the C-terminal Cys
notes: the SUMO is internal (His6-SpyTag003-SUMO-Cys) and is not cut off; also called fluorescently labeled probe
B8: reconstituted SpyCatcher003 spliced from SpyN-αHER2 and SpyC-αEGFR (FLAG-αHER2-SpyCatcher003-αEGFR-Myc, NrdJ-1 splice product) (other)
chain: DYKDDDDKDLGKKLLEAARAGQDDEVRILMANGADVNAKDEYGLTPLYLATAHGHLEIVEVLLKNGADVNAVDAIGFTPLHLAAFIGHLEIAEVLLKHGADVNAQDKFGKTAFDISIGNGNEDLAEILQKLNGSTSGSVTTLSGLSGEQGPSGDMTTEEDSATHIKFSKRDEDGRELAGATMELRDSSGKTISTWISDGHVKDFYLYPGKYSFVETAAPDGYEVATPIEFTVNEDGQVTVDGEATEGDAHTGSTSGSDLGKKLLEAARAGQDDEVRILMANGADVNADDTWGWTPLHLAAYQGHLEIVEVLLKNGADVNAYDYIGWTPLHLAADGHLEIVEVLLKNGADVNASDYIGDTPLHLAAHNGHLEIVEVLLKHGADVNAQDKFGKTAFDISIDNGNEDLAEILQKLNEQKLISEEDL
notes: On cells it is held by its two DARPins on HER2 and EGFR; also called reconstituted SpyCather003; spliced SpyCatcher003

Assay [1] has as its target T1, Epithelial Cell Adhesion Molecule (EpCAM), endogenous on human cell lines (human, UniProt P16422 24-314).
T1 construct: whole, on cells
T1 sequence (looked up): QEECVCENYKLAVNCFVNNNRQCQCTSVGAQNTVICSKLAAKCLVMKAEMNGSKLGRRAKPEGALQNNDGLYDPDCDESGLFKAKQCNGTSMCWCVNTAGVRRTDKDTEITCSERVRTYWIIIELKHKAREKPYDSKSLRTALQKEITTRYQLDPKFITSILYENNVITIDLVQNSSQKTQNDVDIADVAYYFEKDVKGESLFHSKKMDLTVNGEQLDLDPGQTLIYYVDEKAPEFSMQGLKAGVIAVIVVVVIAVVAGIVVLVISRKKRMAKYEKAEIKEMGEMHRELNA
Put plainly: flow cytometry, 100 nM DARPin-AF594 on human cancer cell lines.

Assay [2] concerns the target B8. Kind of assay: western blot of K562 HER2+/EGFR+ cells treated with SMART-SpyCatcher and 300 nM SpyTag003-APEX2. Background: In western blotting, separated proteins are transferred to a membrane and probed.
Protocol: To the sample was added the specified SMART-SpyCatcher at the specified concentration by adding each individual component (SpyN and SpyC) from stock solutions. The sample was incubated for 2 hr, 37° C., 5% CO₂ to allow for actuation. The sample was then cooled at room temperature for 10 min before adding the specified SpyTag003 conjugate at 100 nM. […] The cells were then washed twice with cold DPBS, 1% w/v BSA, 2 mM CaCl₂) and incubated on ice until further analysis by confocal microscopy or flow-cytometry. Samples subjected to SDS-PAGE/western blotting were washed twice with DPBS alone to remove excess BSA. […] Adherent cell lines: The various adherent cell lines were cultured individually. Plated cells were lifted using trypsin, washed with complete medium and counted to estimate the cell concentration. Then 200,000 cells were seeded in a 24 well plate format and allowed 24 hr recovery and attachment in complete media. The assay protocol for SMART-SpyCatcher actuation and SpyTag003 recruitment follows that outlined above for the suspension cell lines. Post-treatment, the adherent cells were washed twice with DPBS, 1% w/v BSA, 2 mM CaCl₂) and then lifted with a non-enzymatic solution of DPBS, 1% w/v BSA, 50 mM EDTA and incubated on ice before analysis by flow-cytometry. For SDS-PAGE/western blotting cells were lifted as described and then washed with DPBS alone to remove excess BSA. […]
The target in assay [3] is B4. Kind of assay: confocal microscopy, K562 HER2+/EGFR+ cells; splicing-dead SpyN-αHER2 together with SpyC-αEGFR.
Assay [4] concerns the target B8. Put plainly: confocal microscopy, K562 HER2+/EGFR+ cells treated with SpyN-αHER2 and SpyC-αEGFR (eNrdJ-1^cage), 100 nM probe.
Protocol: Confocal microscopy of K562 cell lines treated with SMART-SpyCatcher for [HER2 AND EGFR] operation. K562^{HER2+/EGFR+} cell line were assayed for SMART-SpyCatcher activation and analyzed by confocal microscopy.
(§1) Suspension cell lines: The K562 cell lines were cultured were individually. For an experiment, the culture of interest was spun down and counted to estimate the cell concentration. Then approximately 200,000 cells were isolated, washed twice with DPBS, 1% w/v BSA, 2 mM CaCl₂) and suspended in 0.4 mL of the buffer. To the sample was added the specified SMART-SpyCatcher at the specified concentration by adding each individual component (SpyN and SpyC) from stock solutions. The sample was incubated for 2 hr, 37° C., 5% CO₂ to allow for actuation. The sample was then cooled at room temperature for 10 min before adding the specified SpyTag003 conjugate at 100 nM. […] The cells were then washed twice with cold DPBS, 1% w/v BSA, 2 mM CaCl₂) and incubated on ice until further analysis by confocal microscopy or flow-cytometry. Samples subjected to SDS-PAGE/western blotting were washed twice with DPBS alone to remove excess BSA.
Assay [5] deals with B8. Kind of assay: confocal microscopy, K562 HER2+/EGFR+ cells treated with SMART-SpyCatcher, 100 nM SpyTag003-DNP.
Protocol: The anti-DNP antibody was detected using a goat anti-rabbit IgG AF594 conjugate.
Suspension cell lines: The K562 cell lines were cultured were individually. For an experiment, the culture of interest was spun down and counted to estimate the cell concentration. Then approximately 200,000 cells were isolated, washed twice with DPBS, 1% w/v BSA, 2 mM CaCl₂) and suspended in 0.4 mL of the buffer. To the sample was added the specified SMART-SpyCatcher at the specified concentration by adding each individual component (SpyN and SpyC) from stock solutions. The sample was incubated for 2 hr, 37° C., 5% CO₂ to allow for actuation. The sample was then cooled at room temperature for 10 min before adding the specified SpyTag003 conjugate at 100 nM. […] The cells were then washed twice with cold DPBS, 1% w/v BSA, 2 mM CaCl₂) and incubated on ice until further analysis by confocal microscopy or flow-cytometry.
The target of assay [6] is B8. Kind of assay: western blot of K562 HER2+/EGFR+ cells treated with SMART-SpyCatcher.
Protocol: (§2) Samples were run on an SDS-PAGE gel. […] The membrane was washed 3×5 min with TBS-T and incubated with primary antibodies at specified dilution (Table 4) on an orbital shaker for 1 hr at room temperature or alternatively overnight at 4° C. After washing 3×5 min with TBS-T, the IRDye secondary antibody or alternatively IRDye Streptavidin were applied for 30 min to 1 hour at room temperature, before imaging on a Li-Cor Odyssey imager (Li-Cor).
as §1
Assay [7] concerns the target B8. Put plainly: labeled mutant probe on K562 HER2+/EGFR+ cells treated with SMART-SpyCatcher, washed, AF594 signal.
Assay [8] concerns the target B4. Put plainly: in vitro splicing of the C76V FKBP/FRB precursors with rapamycin, reaction with 2 µM SpyTag003-AF594, western blot.
Protocol: as §2
Splicing was initiated either by addition of 8 μL, 50 µM rapamycin (DMSO) or 1 μL, 40×TEV protease. Buffered solution was added to compensate for volume differences when reaction components were omitted in control reactions. The reaction was left for 24 hr at 37° C. before further analysis by SDS-PAGE followed by western blotting.
The target in assay [9] is B4. Kind of assay: flow cytometry, K562 HER2+/EGFR+ cells, SpyN-αHER2(K31E) + SpyC-αEGFR. (In general: In flow cytometry, cells or beads pass a laser one at a time.)
For assay [10], the target named is T2, HER2, endogenous on human cell lines (human, UniProt P04626 23-1255).
T2 construct: whole, on cells
Put plainly: flow cytometry, 100 nM DARPin-AF594 on human cancer cell lines.

Experimental findings from patent US20260053882A1 (TRUSTEES OF PRINCETON UNIVERSITY, published 2026) are described below.

B1: αEpCAM-AF594 DARPin (αEpCAM-HA-Cys Alexa Fluor 594 conjugate) (designed binder)
chain: DLGKKLLEAARAGQDDEVRILVANGADVNAYFGTTPLHLAAAHGRLEIVEVLLKNGADVNAQDVWGITPLHLAAYNGHLEIVEVLLKYGADVNAHDTRGWTPLHLAAINGHLEIVEVLLKNVADVNAQDRSGKTPFDLAIDNGNEDIAEVLQKAAKLNGGYPYDVPDYAGGSC
modifications: Alexa Fluor 594 C5 maleimide on the C-terminal Cys
notes: His6-SUMO tag cut off with Ulp1; range derived by counting; also called targeting DARPin labeled with AF594
On to B1, for which the binding result in [1] is given as “binds”.

B2: SpyTag003-APEX2 (His6-SpyTag003-HA-APEX2) (other)
chain: MGSSHHHHHHSSGLVPRGSRGVPHIVMVDAYKRYKGSGESGYPYDVPDYASSGGKSYPTVSADYQDAVEKAKKKLRGFIAEKRCAPLMLRLAFHSAGTFDKGTKTGGPFGTIKHPAELAHSANNGLDIAVRLLEPLKAEFPILSYADFYQLAGVVAVEVTGGPKVPFHPGREDKPEPPPEGRLPDPTKGSDHLRDVFGKAMGLTDQDIVALSGGHTIGAAHKERSGFEGPWTSNPLIFDNSYFTELLSGEKEGLLQLPSDKALLSDPVFRPLVDKYAADEDAFFADYAEAHQKLSELGFADA
notes: Not SUMO-tagged
On to B2, for which, in assay [2], the binding result is given as “binds”.

B3: αHER2-SpyN-eNrdJ-1N^cage Cys1-alkylated (other)
chain: DYKDDDDKDLGKKLLEAARAGQDDEVRILMANGADVNAKDEYGLTPLYLATAHGHLEIVEVLLKNGADVNAVDAIGFTPLHLAAFIGHLEIAEVLLKHGADVNAQDKFGKTAFDISIGNGNEDLAEILQKLNGSTSGSVTTLSGLSGEQGPSGDMTTEEDSATHIKFSKRDEDGRELAGATMELRDSSGKTISTWISDGHVKDFYLYPGKYCLVGSSEIITRNYGKTTIKEVVEIFDNDKNIQVLAFNTHTDNIEWAPIKAAQLTRPNAELVELEIDTLHGVKTIRVTPDHPVYTKNRGYVRADELTDDDELVVAIENLYGDEVNGYFQGMEAETYIGKLKSRAIVSNEDTYDIQTSTHNFFAND
modifications: Cys1 of eNrdJ-1N^cage alkylated with iodoacetamide (residue 331 of the printed SEQ ID NO 26)
notes: His6-SUMO tag cut off with Ulp1; range derived by counting; also called SpyN-αHER2 with Cys1-alkylated NrdJ-1N^cage
For the molecule B3, the binding result in assay [3] is listed as “no binding (tested: 100 nM)”.

With B4, in assay [4], the binding result was “binds”.

B5: SpyTag003-DNP (His6-SpyTag003-SUMO-Cys dinitrophenol conjugate) (other)
chain: MGSSHHHHHHSSGLVPRGSRGVPHIVMVDAYKRYKGSGESGMSDSEVNQEAKPEVKPEVKPETHINLKVSDGSSEIFFKIKKTTPLRRLMEAFAKRQGKEMDSLRFLYDGIRIQADQTPEDLDMEDNDIIEAHREQIGC
modifications: 2,4-dinitrophenyl-maleimide on the C-terminal Cys
notes: Conjugate of SpyTag003-Cys; also called SpyTag003 2,4-dinitrolphenol conjugate; dinitrophenyl probe
Take B5: the binding result in assay [5] is “binds”.

B6: SpyTag003-biotin (His6-SpyTag003-SUMO-Cys biotin conjugate) (other)
chain: MGSSHHHHHHSSGLVPRGSRGVPHIVMVDAYKRYKGSGESGMSDSEVNQEAKPEVKPEVKPETHINLKVSDGSSEIFFKIKKTTPLRRLMEAFAKRQGKEMDSLRFLYDGIRIQADQTPEDLDMEDNDIIEAHREQIGC
modifications: biotin maleimide on the C-terminal Cys
notes: Conjugate of SpyTag003-Cys; also called biotinylated probe
For the molecule B6, the binding result in assay [6] is “binds”.

B7: SpyTag003^D117A-AF594 (His6-SpyTag003^D117A-SUMO-Cys Alexa Fluor 594 conjugate) (other)
chain: MGSSHHHHHHSSGLVPRGSRGVPHIVMVAAYKRYKGSGESGMSDSEVNQEAKPEVKPEVKPETHINLKVSDGSSEIFFKIKKTTPLRRLMEAFAKRQGKEMDSLRFLYDGIRIQADQTPEDLDMEDNDIIEAHREQIGC
modifications: Alexa Fluor 594 C5 maleimide on the C-terminal Cys
For B7, the binding result in assay [7] is “no binding (tested: 100 nM)”.

Consider B8, for which the binding result in assay [8] is given as “binds”.

B9: reconstituted SpyCatcher003 with K31E, spliced from SpyN-αHER2(K31E) and SpyC-αEGFR (other)
chain: DYKDDDDKDLGKKLLEAARAGQDDEVRILMANGADVNAKDEYGLTPLYLATAHGHLEIVEVLLKNGADVNAVDAIGFTPLHLAAFIGHLEIAEVLLKHGADVNAQDKFGKTAFDISIGNGNEDLAEILQKLNGSTSGSVTTLSGLSGEQGPSGDMTTEEDSATHIKFSERDEDGRELAGATMELRDSSGKTISTWISDGHVKDFYLYPGKYSFVETAAPDGYEVATPIEFTVNEDGQVTVDGEATEGDAHTGSTSGSDLGKKLLEAARAGQDDEVRILMANGADVNADDTWGWTPLHLAAYQGHLEIVEVLLKNGADVNAYDYIGWTPLHLAADGHLEIVEVLLKNGADVNASDYIGDTPLHLAAHNGHLEIVEVLLKHGADVNAQDKFGKTAFDISIDNGNEDLAEILQKLNEQKLISEEDL
notes: K31 is counted on SpyCatcher003; ranges derived as for m26; also called defective POI; defective output
For the molecule B9, in [9], the binding result is listed as “no binding (tested: 100 nM)”.

B10: αHER2-AF594 DARPin (αHER2-HA-Cys Alexa Fluor 594 conjugate) (designed binder)
chain: DLGKKLLEAARAGQDDEVRILMANGADVNAKDEYGLTPLYLATAHGHLEIVEVLLKNGADVNAVDAIGFTPLHLAAFIGHLEIAEVLLKHGADVNAQDKFGKTAFDISIGNGNEDLAEILQKLNGGYPYDVPDYAGGSC
modifications: Alexa Fluor 594 C5 maleimide on the C-terminal Cys
notes: as for B1
In the case of B10, the binding result in [10] is given as “binds”.
